Laboratory results taken from the supplement of paper PMC12764529.
± gives the half width of the 95% confidence interval.

Test: folding stability dG unfold from chymotrypsin proteolysis; higher = more stable
Procedure, shortened: (§1)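 Unfolding free energy was derived, per protease or combined, by relating Bayesian-fitted K50 values from sequencing counts to a sequence-predicted unfolded-state K50 and a shared folded-state K50. The underlying digests exposed cysteine-free mini-proteins under 80 residues, in a PA-tagged cDNA display construct, to trypsin and chymotrypsin at 11 threefold-diluted concentrations and to a no-protease condition. A filter kept only designs with AlphaFold2 dimer inter-PAE above 15.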

| Sequence | folding stability dG unfold [kcal/mol] |
| --- | --- |
| SAAVTPLTETIPYTPEEARAAAEEVAAARAAALRAAGYRVLSVDVVEMEPGEYVIRMRLTVAAPDEALPSAG [r14_973_JUSTAS] | 3.12 ± 0.036 |
| SAGGSAGGSAPWLTIIFRMDTPEMAKEIANWLREDGLDIEVETEPDPNDGRFWVMITIQLPNSAGGSAGGSA [r18_455_TrROS] | 4.24 ± 0.07 |
| SAGGSAGGSAGKTVVIEIKGMSKEQVLNLIKELAEKYPNSKIIITNENGEKIEINVKDLKSAGGSAGGSAGG [r11_541_TrROS_Hall] | 3.34 ± 0.12 |
| SAGGSVEVEPLPNGLLRVTTVFSESKTPILRKLTYKDENGKPLGTKLELLPEEVEVESVTELLPPELLSAGG [r13_848_JUSTAS] | 0.606 ± 0.11 |
| SAGGASLDDLPLEGIEVLEEEVIPLPNGSTLRKFLVKKPSPGPPELLVEVTEFVDEGSSSVSVTPLGSAGGS [r16_469_JUSTAS] | -0.301 ± 0.45 |
| SAGGDNKPKVYPITFMIPPDDIKPGDEIPIDEIADNLGIPPNYTIKIKEVQPNPEDGYYMYRIEIVWSAGGS [r16_165_TrROS] | 1.68 ± 0.085 |
| SAGNMFMVRITFPMPRYEQKRDPDNGKPKMEPKPHPREITIMVPPDSPQARDLANKLAPPGWKVDVFPMSAG [r5_468_TrROS] | 1.43 ± 0.22 |
| SAMTIEITVPPGMSVEELAKLLKELFPEVEEIKIEVEYDEETKELKVRIEIRPKPELSEEEKEALEKLKSAG [r14_645_TrROS_Hall] | 3.99 ± 0.47 |
| SAGGSAGGSAGMTITVPITDLEKLKTMPELPVEVIEEGEGPPTATLDASNPELAKQAYSSSAGGSAGGSAGG [r11_65_JUSTAS] | 0.117 ± 0.49 |
| SLEEFLASEEAKKRLEALKPPPPVETIRIKVKAKSVEEALKAIRELFPGVEVVKIKEVRPDGYLEVEVRRSA [r9_723_TrROS_Hall] | 2.37 ± 0.36 |
| SAGGSAGGSAGGGMGSSVTITTEEDPTDETETTKKTKVTLNLPNPEEAEALKKKIEEKESAGGSAGGSAGGS [r10_1180_JUSTAS] | -0.807 ± 0.68 |
| SAGGMVVVKIRIEREVDGKVEEVELVLEVELDEDGKVSAEELKALLKELLPENVKITEIEVVEPGEEPSAGG [r13_504_TrROS_Hall] | 3.39 ± 0.2 |
| SAGGSAGGSEEVEIRIVLPDMSEEELKAALEALLSEPGAEIEIVRVERREDGSLVVTVKVRVPSAGGSAGGS [r12_348_TrROS_Hall] | 2.9 ± 0.12 |
| SAGGSAGGSAGGSKKVIEVPAKDLTPEQLKKLAKEGETIEITFPNGEKKEIPAEKLKPKSAGGSAGGSAGGS [r4_382_TrROS_Hall] | -0.998 ± 0.9 |
| SAGEIAEALGFEVVDVSIEEVDGKLRITVVVRFKDNDLVITAEAEVTEVDGELKIEIKITIEPLPPEDLSAG [r5_516_TrROS_Hall] | 3.66 ± 0.37 |

Test: folding stability dG unfold (combined trypsin and chymotrypsin); higher = more stable
Procedure, shortened: as §1

| Sequence | folding stability dG unfold [kcal/mol] |
| --- | --- |
| SAGGMIQIERDKDGYLRITIWVPGDPKEAEEIAENIIELLQDLGFDEVDIDYEPFDGGVMIEITVKVSAGGS [r8_113_TrROS] | 3.29 ± 0.077 |
| SAGKIEIEVNEDGYKVRIKVEIEGKTYEFEIKVEGLSVEEIVKKALEELKKLFPNKKIKVEVEILPKKESAG [r5_180_TrROS_Hall] | 4.9 ± 0.54 |
| SAGGSAGGSAPTLELTVTLPDGLRVTVRYDLETDEVTIEVRPLPAPPPPELSEEERKKLAEESAGGSAGGSA [r18_236_TrROS_Hall] | 1.98 ± 0.12 |
| SAGEPLGPEKAKELAEELVERVAREIAERLGLAPEEVEVVSVELTPDGRLVLTLRVPEREFTFVFPVEGSAG [r5_565_TrMRF] | 4.62 ± 0.054 |
| SAGGSMKEIVELGEVEFEEDSVALKVKFKVKLVFYDPETGEKVEEREEELEVYFGGDTLEFSPVEGSAGGSA [r2_271_TrMRF] | 2.08 ± 0.11 |
| SAGGSAGGSAGKKSYVLIKVKNPKTKETHTIVVPEENLEEVLKALASQPNVKVVDIERFPSAGGSAGGSAGG [r11_692_TrROS_Hall] | 3.95 ± 0.12 |
| SAGMTIKIKNKKTNKVITIERRPDGTTVKVKVYDKNGKLVKTYPEGMTLEELLKKFPNAKVEVVEVEKPSAG [r5_314_TrROS_Hall] | 1.14 ± 0.07 |
| SAAVTPLTETIPYTPEEARAAAEEVAAARAAALRAAGYRVLSVDVVEMEPGEYVIRMRLTVAAPDEALPSAG [r14_973_JUSTAS] | 2.86 ± 0.06 |
| SAGGSAGGSAPWLTIIFRMDTPEMAKEIANWLREDGLDIEVETEPDPNDGRFWVMITIQLPNSAGGSAGGSA [r18_455_TrROS] | 3.96 ± 0.17 |
| SAGGSAGGSAGKTVVIEIKGMSKEQVLNLIKELAEKYPNSKIIITNENGEKIEINVKDLKSAGGSAGGSAGG [r11_541_TrROS_Hall] | 2.85 ± 0.22 |
| SAGGSVEVEPLPNGLLRVTTVFSESKTPILRKLTYKDENGKPLGTKLELLPEEVEVESVTELLPPELLSAGG [r13_848_JUSTAS] | 0.256 ± 0.079 |
| SAGGASLDDLPLEGIEVLEEEVIPLPNGSTLRKFLVKKPSPGPPELLVEVTEFVDEGSSSVSVTPLGSAGGS [r16_469_JUSTAS] | 0.0997 ± 0.14 |
| SAGGDNKPKVYPITFMIPPDDIKPGDEIPIDEIADNLGIPPNYTIKIKEVQPNPEDGYYMYRIEIVWSAGGS [r16_165_TrROS] | 1.65 ± 0.073 |
| SAGNMFMVRITFPMPRYEQKRDPDNGKPKMEPKPHPREITIMVPPDSPQARDLANKLAPPGWKVDVFPMSAG [r5_468_TrROS] | 1.09 ± 0.19 |
| SAGGDILLVIPAELFFDEDGKPSEEAVKAIEKAAELAEKLNKEGKPVKIEVKVVPLLPPVSPSDPYVFSAGG [r13_731_TrMRF] | -0.358 ± 0.36 |
| SAGGSAGGSAGGPEYIQINIKIYDPDNPKEREIPISMPVEEIEKIAKEFMPPGYRVEIISAGGSAGGSAGGS [r10_397_TrROS] | < -1 |
| SAGMSTSGPIFVPEGPPAIYISYPKPNVKFVVPVSEGIEAVKKRAEEPGLNPVIIKVVETPPGVPVTLSAGG [r19_386_JUSTAS] | < -1 |
| SAGGMDVKVEVKEVELPEAKVTITKITTPDGSTSTITYDPETGTADVTTTTPTSTTTTTLPKSEIKPLSAGG [r13_328_JUSTAS] | 0.184 ± 0.31 |
| SAGGSAGGSAGIPNLIAYEVSKEGKPVKIIVKSPNGEEYEITVSPNESIPENIEILKVEVGSAGGSAGGSAG [r3_421_TrMRF] | -0.0441 ± 0.15 |

| Sequence | folding stability dG unfold [kcal/mol] |
| --- | --- |
| SAGGTVKVTVEVRDEETGETVTVEVEVEPAPAPPVVVLPAEDLEKLRELGFPENAVLDEETNELVIFSAGGS [r16_194_TrROS_Hall] | -0.204 ± 0.24 |
| SAGMKVEVVERKGPDGRLVRVVKETTITPVPGPAVAEANGAPLTPEDEKVVTVTTTVLDPEGKVLETVDSAG [r5_128_JUSTAS] | < -1 |
| SAGGSAGGSAGVPVPGTDVPAEPITVLKKNPDGTVTKLKDESLTLEEIKAKLPGEVEFVGSAGGSAGGSAGG [r17_125_JUSTAS] | < -1 |
| SSMSTPSSSTLTVELPDREVTASATTTTLPDGTTTTTTTFPDGSTITYDPATGTTTIYDPATGAPLATTGSA [r9_970_JUSTAS] | 0.344 ± 0.047 |
| SSFMEQARNMAEELLQKKGLPPKPGEKVEIPIPYPNGMQIRITINPEEKKIDVEFYNDNQPVEHTFKIKKSA [r9_426_TrROS] | -0.821 ± 0.76 |
| SAGGSAGGSAGMMEEKLIKEYEDPNGGKKYTIKLVKDPKTGKEKIVKETIEPNKKTTEIKNLSAGGSAGGSA [r18_444_JUSTAS] | -0.365 ± 0.62 |
| SAGGSAGGSVKVTTEPLPNGERLVTVTAYLKSKPYPVLMPYPASATPEQVKETALRIEKELEKSAGGSAGGS [r12_69_TrMRF] | < -1 |
| SAGGSAGGSAGGYKVKVYNPENGKPQEIPLPPNDIPELLDKLPNGPWWIRVKDPDRWIPLSAGGSAGGSAGG [r7_188_TrROS] | -0.562 ± 0.57 |
| SAGGSAGGSKFPKKFTVEVYTLTKKLKTPEGKLKTETTVLIEKTEEIKPLPEIDEERVEKVLLSAGGSAGGS [r12_1060_JUSTAS] | < -1 |
| SAGGGVSTSTDPNSDTTTTTVPLPNSDSTATSTHNPSTGTSTTTVPTNNTTTTYSPGGTTTATTTLPTSAGG [r13_101_JUSTAS] | -0.425 ± 0.18 |
| SLEIAKELGFPIKRFEPTEMDPDNGRQKWEAYIPMPNRTVRVDIDIRYEPDPNGKRQPKIQIDSIEFMPPSA [r9_613_TrROS] | -0.242 ± 0.23 |
| SAMLTTLETTTTTSDSLTVTTSLSLLPDGSLVTTTTVIDTSGNVLSSTTTVEPGPPPVTPENIALMVRLSAG [r14_171_JUSTAS] | 0.125 ± 0.29 |
| SAGGSNNDNQPEPKVPYMEITINIPVNYNPNQSEEDRKRQVQEFIEELKDMYIPFPNGYPIRIDVMSAGGSA [r2_149_TrROS] | -0.554 ± 0.49 |
| SAGGSANMREVEIPMTPNDLEEALEEVEDAPPGRNVSVNMTNPEEGKPYPIKIRVNENGKLTEIEFSAGGSA [r15_228_TrROS] | -0.179 ± 0.27 |
| SAGGSAGGSGKWMTAKELLKEFKPGKTIMIRMPPGTEIPPNIKPKGTFPGNGWMMIKIPPNDISAGGSAGGS [r12_356_TrROS] | -0.274 ± 0.42 |
| SAGGSAGGSAGEPEKPVLVKVILPGGKPLLIPGKREEAKKAVEELEKKGFPVEKAEVFDESAGGSAGGSAGG [r11_946_TrMRF] | < -1 |
| SAGGSAGGSAGGKLVKVTFRTPGGGTLTVEVPPTESLTLPYGDKPILVDVKEDEVVFRDESAGGSAGGSAGG [r7_510_TrMRF] | -0.891 ± 0.44 |
| SAGGSAGGSMTETVVLPYPLPPGVPFHIELPDGSKSVSADPETGTLTVLVKKGTEEAVKEALASAGGSAGGS [r12_476_JUSTAS] | -0.989 ± 0.27 |
| SAGGSAGGSAGGSKKTAVLKVGDKWIPLEIDEDKVTLIYPDGKKEEISLEDIPENTISDASAGGSAGGSAGG [r7_748_TrMRF] | -0.212 ± 0.11 |
